Results on one molecule are retold here after US20090149389A1 (PURDUE RESEARCH FOUNDATION, published 2009).

Targets include CKIB (h) (human (h)); cKit (h) (human (h), UniProt P10721 544-976, limits assumed); FGFR1 (h) (human (h), UniProt P11362 456-765, limits assumed); IGF-IR (h) (human (h), UniProt P08069 959-1367, limits assumed); Lck (h) (human (h), UniProt P06239 1-509); L1MK1 (h) (human (h), UniProt P53667 285-638, limits assumed); Met (h) (human (h), UniProt P08581 974-1390, limits assumed); PDGFRβ (h) (human (h), UniProt P09619 558-1106, limits assumed); PKCδ (h) (human (h), UniProt Q05655 1-676).

Test in all cases: cell-based or functional assay
The target of the next experiment is T1, DYRK2 (h) (human (h), UniProt Q92630 1-601, limits assumed).
T1 sequence (looked up): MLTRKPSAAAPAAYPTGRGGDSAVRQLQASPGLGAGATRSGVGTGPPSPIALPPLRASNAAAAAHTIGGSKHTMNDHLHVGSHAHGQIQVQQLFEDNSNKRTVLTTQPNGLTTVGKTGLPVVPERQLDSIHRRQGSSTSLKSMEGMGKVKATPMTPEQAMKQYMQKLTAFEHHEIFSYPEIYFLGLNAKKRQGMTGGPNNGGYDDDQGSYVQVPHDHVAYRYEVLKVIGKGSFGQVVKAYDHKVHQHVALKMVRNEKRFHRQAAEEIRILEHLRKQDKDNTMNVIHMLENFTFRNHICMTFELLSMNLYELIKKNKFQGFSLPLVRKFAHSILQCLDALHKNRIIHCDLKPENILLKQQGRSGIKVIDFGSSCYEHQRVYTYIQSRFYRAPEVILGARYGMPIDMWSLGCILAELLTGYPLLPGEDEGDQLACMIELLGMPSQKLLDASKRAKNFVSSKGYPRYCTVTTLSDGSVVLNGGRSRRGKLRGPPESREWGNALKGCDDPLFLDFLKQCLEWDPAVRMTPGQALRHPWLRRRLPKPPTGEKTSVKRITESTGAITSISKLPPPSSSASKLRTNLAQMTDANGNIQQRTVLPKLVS

The next experiment concerns the target T2, Flt3 (h) (human (h), UniProt P36888 564-993, limits assumed).
T2 sequence (looked up): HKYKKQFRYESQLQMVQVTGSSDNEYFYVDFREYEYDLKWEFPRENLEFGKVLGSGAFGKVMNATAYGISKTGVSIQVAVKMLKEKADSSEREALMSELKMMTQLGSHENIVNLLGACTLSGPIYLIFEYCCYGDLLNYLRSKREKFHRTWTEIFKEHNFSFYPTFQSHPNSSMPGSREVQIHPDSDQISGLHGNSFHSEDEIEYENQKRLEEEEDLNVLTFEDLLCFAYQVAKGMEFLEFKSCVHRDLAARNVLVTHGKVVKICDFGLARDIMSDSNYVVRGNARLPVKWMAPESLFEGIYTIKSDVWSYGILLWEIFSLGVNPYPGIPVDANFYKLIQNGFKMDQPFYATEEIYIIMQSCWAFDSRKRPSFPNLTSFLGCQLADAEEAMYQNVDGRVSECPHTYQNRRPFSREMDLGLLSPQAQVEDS

Another experiment deals with T3, PhKγ2 (h) (human (h), UniProt P15735 1-406).
T3 sequence (looked up): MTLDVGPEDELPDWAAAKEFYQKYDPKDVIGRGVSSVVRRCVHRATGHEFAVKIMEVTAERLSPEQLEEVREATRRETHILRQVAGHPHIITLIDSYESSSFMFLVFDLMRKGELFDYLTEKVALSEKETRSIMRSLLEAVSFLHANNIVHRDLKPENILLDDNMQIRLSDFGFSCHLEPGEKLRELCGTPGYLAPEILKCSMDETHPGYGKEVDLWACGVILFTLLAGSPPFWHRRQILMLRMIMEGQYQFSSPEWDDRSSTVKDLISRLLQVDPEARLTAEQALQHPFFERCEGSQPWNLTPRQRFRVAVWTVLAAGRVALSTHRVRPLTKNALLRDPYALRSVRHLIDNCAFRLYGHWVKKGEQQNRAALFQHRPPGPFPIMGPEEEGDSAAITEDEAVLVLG

The target of another experiment is T4, Ret (h) (human (h), UniProt P07949 658-1114, limits assumed).
T4 sequence (looked up): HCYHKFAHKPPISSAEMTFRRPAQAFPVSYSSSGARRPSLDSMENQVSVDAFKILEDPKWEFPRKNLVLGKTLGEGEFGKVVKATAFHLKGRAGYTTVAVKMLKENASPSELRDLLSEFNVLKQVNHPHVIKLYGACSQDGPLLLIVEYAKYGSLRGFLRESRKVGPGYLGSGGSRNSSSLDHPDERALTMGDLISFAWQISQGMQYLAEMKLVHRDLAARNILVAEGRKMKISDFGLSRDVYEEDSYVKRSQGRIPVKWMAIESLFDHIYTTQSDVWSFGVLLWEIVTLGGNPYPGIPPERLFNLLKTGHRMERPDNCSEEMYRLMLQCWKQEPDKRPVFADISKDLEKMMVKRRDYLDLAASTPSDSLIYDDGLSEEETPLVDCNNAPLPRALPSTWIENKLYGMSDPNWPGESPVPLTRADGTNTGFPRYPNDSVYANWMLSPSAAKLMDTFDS

L1MK1 (h), sequence (P53667 285-638 limits assumed): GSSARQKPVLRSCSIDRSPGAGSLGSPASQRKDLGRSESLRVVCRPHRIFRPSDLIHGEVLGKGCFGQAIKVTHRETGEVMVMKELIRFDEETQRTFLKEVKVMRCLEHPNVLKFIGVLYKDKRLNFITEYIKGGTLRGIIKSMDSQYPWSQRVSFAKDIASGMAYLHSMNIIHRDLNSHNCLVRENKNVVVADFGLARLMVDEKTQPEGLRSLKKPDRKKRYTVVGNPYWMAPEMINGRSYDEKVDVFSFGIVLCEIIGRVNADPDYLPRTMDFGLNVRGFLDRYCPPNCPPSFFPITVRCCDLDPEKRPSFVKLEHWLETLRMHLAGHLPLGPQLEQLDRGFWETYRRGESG
IGF-IR (h), sequence (P08069 959-1367 limits assumed): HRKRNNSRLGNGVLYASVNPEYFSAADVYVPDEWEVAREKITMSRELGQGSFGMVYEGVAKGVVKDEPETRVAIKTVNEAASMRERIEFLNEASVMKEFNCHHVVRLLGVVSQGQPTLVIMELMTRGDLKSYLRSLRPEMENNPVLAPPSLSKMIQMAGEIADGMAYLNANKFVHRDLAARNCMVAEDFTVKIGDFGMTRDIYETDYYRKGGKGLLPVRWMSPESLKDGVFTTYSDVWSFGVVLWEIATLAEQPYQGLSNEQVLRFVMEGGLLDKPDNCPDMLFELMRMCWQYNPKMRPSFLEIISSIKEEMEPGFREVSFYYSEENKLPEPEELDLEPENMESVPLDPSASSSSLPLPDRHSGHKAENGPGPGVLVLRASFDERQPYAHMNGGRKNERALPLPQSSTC
Lck (h), sequence (P06239 whole entry): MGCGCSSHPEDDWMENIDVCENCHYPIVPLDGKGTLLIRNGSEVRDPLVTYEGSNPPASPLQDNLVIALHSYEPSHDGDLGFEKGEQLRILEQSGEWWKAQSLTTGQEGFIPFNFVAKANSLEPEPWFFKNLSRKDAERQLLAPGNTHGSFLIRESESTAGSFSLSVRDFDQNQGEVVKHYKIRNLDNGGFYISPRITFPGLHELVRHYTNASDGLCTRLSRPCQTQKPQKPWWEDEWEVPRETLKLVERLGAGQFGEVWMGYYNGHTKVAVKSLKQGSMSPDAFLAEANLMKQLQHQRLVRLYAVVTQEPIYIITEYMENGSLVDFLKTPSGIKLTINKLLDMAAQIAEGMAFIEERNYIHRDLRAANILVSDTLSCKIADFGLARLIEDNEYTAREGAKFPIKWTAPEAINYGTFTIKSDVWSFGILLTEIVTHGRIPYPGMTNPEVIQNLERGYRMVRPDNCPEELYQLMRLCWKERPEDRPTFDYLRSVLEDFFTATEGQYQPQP
PKCδ (h), sequence (Q05655 whole entry, stated change not applied): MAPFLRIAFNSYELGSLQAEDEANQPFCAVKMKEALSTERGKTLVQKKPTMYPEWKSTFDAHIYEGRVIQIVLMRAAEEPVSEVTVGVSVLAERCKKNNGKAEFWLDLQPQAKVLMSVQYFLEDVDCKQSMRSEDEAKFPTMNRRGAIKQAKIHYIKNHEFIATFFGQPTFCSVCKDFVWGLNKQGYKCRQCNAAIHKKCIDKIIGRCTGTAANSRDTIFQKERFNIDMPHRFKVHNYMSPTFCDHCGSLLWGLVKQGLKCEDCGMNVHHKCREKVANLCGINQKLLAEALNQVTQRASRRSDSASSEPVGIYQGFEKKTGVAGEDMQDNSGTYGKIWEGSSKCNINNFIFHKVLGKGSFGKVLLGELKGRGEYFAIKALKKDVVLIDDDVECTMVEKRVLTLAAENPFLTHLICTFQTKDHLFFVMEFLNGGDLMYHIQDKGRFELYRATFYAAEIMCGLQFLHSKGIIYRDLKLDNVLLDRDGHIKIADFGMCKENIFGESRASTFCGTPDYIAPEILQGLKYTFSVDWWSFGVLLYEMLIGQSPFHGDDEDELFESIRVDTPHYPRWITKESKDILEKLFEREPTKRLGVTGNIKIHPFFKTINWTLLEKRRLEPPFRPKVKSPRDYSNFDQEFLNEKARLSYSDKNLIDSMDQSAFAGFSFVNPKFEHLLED
Met (h), sequence (P08581 974-1390 limits assumed): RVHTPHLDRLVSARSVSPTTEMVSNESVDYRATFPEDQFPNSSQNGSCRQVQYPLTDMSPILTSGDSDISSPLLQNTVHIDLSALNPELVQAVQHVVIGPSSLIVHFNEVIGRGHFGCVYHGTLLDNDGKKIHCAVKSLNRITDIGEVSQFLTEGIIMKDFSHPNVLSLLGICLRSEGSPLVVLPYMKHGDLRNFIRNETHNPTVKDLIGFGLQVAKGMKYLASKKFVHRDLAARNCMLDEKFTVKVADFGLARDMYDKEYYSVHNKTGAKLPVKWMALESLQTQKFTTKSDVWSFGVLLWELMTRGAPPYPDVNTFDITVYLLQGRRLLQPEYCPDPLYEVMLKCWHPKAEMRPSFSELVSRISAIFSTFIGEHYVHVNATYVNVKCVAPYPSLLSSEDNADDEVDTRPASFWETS
FGFR1 (h), sequence (P11362 456-765 limits assumed): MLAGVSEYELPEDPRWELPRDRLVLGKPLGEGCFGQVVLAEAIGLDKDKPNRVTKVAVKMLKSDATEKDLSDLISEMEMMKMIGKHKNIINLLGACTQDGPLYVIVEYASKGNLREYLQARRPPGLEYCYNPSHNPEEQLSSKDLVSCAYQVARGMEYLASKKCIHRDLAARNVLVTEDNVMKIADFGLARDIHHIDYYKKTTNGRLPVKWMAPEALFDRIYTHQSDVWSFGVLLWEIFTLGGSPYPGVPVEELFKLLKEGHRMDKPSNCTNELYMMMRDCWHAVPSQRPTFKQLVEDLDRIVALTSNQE
cKit (h), sequence (P10721 544-976 limits assumed): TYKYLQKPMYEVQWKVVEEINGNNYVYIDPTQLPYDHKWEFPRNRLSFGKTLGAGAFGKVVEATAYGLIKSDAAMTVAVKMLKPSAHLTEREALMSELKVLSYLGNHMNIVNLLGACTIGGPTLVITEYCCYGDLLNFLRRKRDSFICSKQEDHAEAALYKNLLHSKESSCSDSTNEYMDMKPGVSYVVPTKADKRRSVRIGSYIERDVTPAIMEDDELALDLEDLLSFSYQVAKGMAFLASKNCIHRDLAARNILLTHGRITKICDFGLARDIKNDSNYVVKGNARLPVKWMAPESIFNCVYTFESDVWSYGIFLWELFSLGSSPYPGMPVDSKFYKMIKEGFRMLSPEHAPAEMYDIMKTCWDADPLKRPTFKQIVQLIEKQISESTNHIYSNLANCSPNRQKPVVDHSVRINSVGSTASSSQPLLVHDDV
PDGFRβ (h), sequence (P09619 558-1106 limits assumed): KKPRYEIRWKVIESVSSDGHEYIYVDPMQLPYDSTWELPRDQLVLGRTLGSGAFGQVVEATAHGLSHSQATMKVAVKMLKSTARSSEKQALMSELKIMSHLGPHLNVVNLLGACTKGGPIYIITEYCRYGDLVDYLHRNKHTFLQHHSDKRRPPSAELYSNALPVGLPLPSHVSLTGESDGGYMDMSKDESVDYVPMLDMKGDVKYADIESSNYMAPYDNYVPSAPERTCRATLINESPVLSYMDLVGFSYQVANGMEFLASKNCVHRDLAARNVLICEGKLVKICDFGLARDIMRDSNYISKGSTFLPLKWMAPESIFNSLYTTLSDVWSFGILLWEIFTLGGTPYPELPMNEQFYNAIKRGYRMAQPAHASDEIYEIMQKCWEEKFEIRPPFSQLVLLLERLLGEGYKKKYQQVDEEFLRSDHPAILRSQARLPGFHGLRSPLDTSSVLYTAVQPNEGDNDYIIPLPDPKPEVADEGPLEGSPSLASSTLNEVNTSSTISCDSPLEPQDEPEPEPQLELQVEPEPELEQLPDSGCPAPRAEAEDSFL

B1: WLRRIKAWLRRIKALNRQLGVAA (peptide)
peptide: WLRRIKAWLRRIKALNRQLGVAA
For B1, the “Profile-1 @ = 30 µm (kinase profiler assay)” value (from here on “Profile-1 @ = 30 µm”) in the experiment with CKIB (h) was 52; with cKit (h), 23; with DYRK2 (h), 93; with FGFR1 (h), 27; with Flt3 (h), 38; in the experiment with IGF-IR (h) it was 227. In addition, the “Profile-1 @ = 30 µm” value with Lck (h) stood at 130; in the experiment with L1MK1 (h) it was 89; with Met (h) it was 30; with PDGFRβ (h), 42; in the experiment with PhKγ2 (h), 15; with PKCδ (h), 11. Further, in the experiment with Ret (h), the “Profile-1 @ = 30 µm” value worked out at 117.
